# Measured values reported in PMC8861115, “Characterization and structural analyses of a novel glycosyltransferase acting on the β-1,2-glucosidic linkages” (The Journal of Biological Chemistry, 2022).
# Assays:
# Settings in all cases: acceptor, donor Sop2 fixed 1 mM, pH 5.0, 37 °C
# [1] = substrate: OC[C@H]1O[C@H](OCc2ccccc2)[C@H](O)[C@@H](O)[C@@H]1O; experiment: hexokinase/G6PDH thio-NAD+ coupled glucose release; assay type: biochemical, Ignavibacterium album
# From the text: (§1) hexokinase/G6PDH thio-NAD+ coupled glucose release on IaSGT (IALB_1185)
# [2] = substrate: OC[C@H]1O[C@@H](Oc2ccc(O)cc2)[C@H](O)[C@@H](O)[C@@H]1O; experiment: hexokinase/G6PDH thio-NAD+ coupled glucose release; assay type: biochemical, Ignavibacterium album
# From the text: as §1
# [3] = substrate: CO[C@@H]1O[C@H](CO)[C@@H](O)[C@H](O)[C@H]1O; experiment: hexokinase/G6PDH thio-NAD+ coupled glucose release; assay type: biochemical, Ignavibacterium album
# From the text: as §1
# [4] = substrate: OC[C@H]1O[C@H](Oc2ccc(O)cc2)[C@H](O)[C@@H](O)[C@@H]1O; experiment: hexokinase/G6PDH thio-NAD+ coupled glucose release; assay type: biochemical, Ignavibacterium album
# From the text: as §1
# [5] = substrate: OCc1ccccc1O[C@@H]1O[C@H](CO)[C@@H](O)[C@H](O)[C@H]1O; experiment: hexokinase/G6PDH thio-NAD+ coupled glucose release; assay type: biochemical, Ignavibacterium album
# From the text: as §1
# [6] = substrate: CO[C@H]1O[C@H](CO)[C@@H](O)[C@H](O)[C@H]1O; experiment: hexokinase/G6PDH thio-NAD+ coupled glucose release; assay type: biochemical, Ignavibacterium album
# From the text: as §1
# [7] = substrate: OC[C@H]1O[C@H](Oc2ccc3ccccc3c2)[C@H](O)[C@@H](O)[C@@H]1O; experiment: hexokinase/G6PDH thio-NAD+ coupled glucose release; assay type: biochemical, Ignavibacterium album
# From the text: as §1
# [8] = substrate: O=c1ccc2cc(O[C@@H]3O[C@H](CO)[C@@H](O)[C@H](O)[C@H]3O)c(O)cc2o1; experiment: hexokinase/G6PDH thio-NAD+ coupled glucose release; assay type: biochemical, Ignavibacterium album
# From the text: as §1
# [9] = substrate: OCc1ccc(O[C@@H]2O[C@H](CO)[C@@H](O)[C@H](O)[C@H]2O)cc1; experiment: hexokinase/G6PDH thio-NAD+ coupled glucose release; assay type: biochemical, Ignavibacterium album
# From the text: as §1
# [10] = substrate: OC[C@H]1O[C@H](Oc2ccccc2)[C@H](O)[C@@H](O)[C@@H]1O; experiment: hexokinase/G6PDH thio-NAD+ coupled glucose release; assay type: biochemical, Ignavibacterium album
# From the text: as §1
# [11] = substrate: CCO[C@H]1O[C@H](CO)[C@@H](O)[C@H](O)[C@H]1O; experiment: hexokinase/G6PDH thio-NAD+ coupled glucose release; assay type: biochemical, Ignavibacterium album
# From the text: as §1
# purified protein [12] = substrate: O=[N+]([O-])c1ccc(O[C@@H]2O[C@H](CO)[C@@H](O)[C@H](O)[C@H]2O)cc1; experiment: purified protein
# purified protein [13] = substrate: O=[N+]([O-])c1ccc(O[C@H]2O[C@H](CO)[C@@H](O)[C@H](O)[C@H]2O)cc1; experiment: purified protein
protein,measurement,setting,value
"IaSGT (IALB_1185) (Ignavibacterium album JCM 16511) (protein, full length (no N-terminal signal peptide), his6-tag fusion from pET30a(+) NdeI/XhoI, E. coli BL21(DE3); homodimer) MKPHNSEKYFVKNGQPHFLISGEVHYFRINPKLWRNHLQLLKQTGADTVSTYIPWDWHEIEEDDFDFEGKTHPARNLIRFIKLCKEENLDLIVKPGPYILAEYENQGLPSWLLKKLSKNAFALDENGNVISPDLVSYLSDEFLEYTFKWYDKVMPIISKHQKEHYGPITMMQLCNEIGVFQWLSGKSDYNPKVINLYKEFIIQRYKTIEKLNSVYSTNYNSFDDLKAPSGKIKLRSDYCAYFDFHLFFREYYNKYISILKNKIRSFGINIKLTHNIPGWIYGNASELPMLISTYSEIMKNHPDIIFGLDHIPEFVSFRNAHSDLACNKILEAMQPEAPVWAAEFQAGTREHHVKAYAKDLETFYIASLAHGIKGFNYYMFSQGINPEGKGFYGKTFYFQTALDAASNKLALYDSIKKVNRFIRKEQKDLLRTNVNSEICVGFYKPYFFTELISSQLLKEKKLNVEELGLYIDPRFLREEILFNGLLRGLQTLNYNYDVVDLENCDLKSLTAYKQLWITSAEFMDAETQNLLSEFVLNGGNLILYPAVPTLDNYLNRCEILKNNFGIEFITKDSSHKVSAFGIEDVFTAFSKKQIYNDTNSKPIAFTQENEICGIRKKIGKGELTILGFAFGYTSDEHLELIDKLVKLNKIKRELFVSDKDIQFVVRENNKSRYIFFLNYHNERKTFNYRKSSELKKKKSEEISIAPFSYKVIKENK",Km,[1],96 ± 11 µM
same,kcat,[1],0.86 ± 0.05 s⁻¹
same,kcat/Km,[1],9000 ± 700 M⁻¹ s⁻¹
same,Km,[2],26 ± 3 µM
same,kcat,[2],1.4 ± 0.1 s⁻¹
same,kcat/Km,[2],55000 ± 5000 M⁻¹ s⁻¹
same,Km,[3],130 ± 30 µM
same,kcat,[3],1.9 ± 0.2 s⁻¹
same,kcat/Km,[3],14000 ± 2000 M⁻¹ s⁻¹
same,Km,[4],380 ± 50 µM
same,kcat,[4],8.7 ± 0.6 s⁻¹
same,kcat/Km,[4],23000 ± 2000 M⁻¹ s⁻¹
same,Km,[5],21 ± 3 µM
same,kcat,[5],0.88 ± 0.03 s⁻¹
same,kcat/Km,[5],43000 ± 1000 M⁻¹ s⁻¹
same,Km,[6],200 ± 30 µM
same,kcat,[6],1 ± 0.1 s⁻¹
same,kcat/Km,[6],4900 ± 400 M⁻¹ s⁻¹
same,Km,[7],150 ± 30 µM
same,kcat,[7],3.9 ± 0.3 s⁻¹
same,kcat/Km,[7],26000 ± 3000 M⁻¹ s⁻¹
same,Km,[8],45 ± 6 µM
same,kcat,[8],1.3 ± 0.1 s⁻¹
same,kcat/Km,[8],29000 ± 1000 M⁻¹ s⁻¹
same,Km,[9],42 ± 4 µM
same,kcat,[9],0.49 ± 0.02 s⁻¹
same,kcat/Km,[9],12000 ± 1000 M⁻¹ s⁻¹
same,Km,[10],220 ± 30 µM
same,kcat,[10],1.8 ± 0.2 s⁻¹
same,kcat/Km,[10],8100 ± 600 M⁻¹ s⁻¹
same,Km,[11],44 ± 5 µM
same,kcat,[11],0.55 ± 0.02 s⁻¹
same,kcat/Km,[11],13000 ± 1000 M⁻¹ s⁻¹
same,Km,purified protein [12],40 ± 4 µM
same,kcat,purified protein [12],0.46 s⁻¹
same,kcat/Km,purified protein [12],12000 M⁻¹ s⁻¹
same,Km,purified protein [13],130 ± 20 µM
same,kcat,purified protein [13],5 s⁻¹
same,kcat/Km,purified protein [13],39000 M⁻¹ s⁻¹
